Measurements as given in paper PMC2744266, “The Ataxia (ax ^J) Mutation Causes Abnormal GABAA Receptor Turnover in Mice” (PLoS Genetics, 2009).

Biological target: T1, GABAAR α1 subunit, full length, expressed in HEK293 cells (UniProt P62812 28-455)
T1 sequence (looked up): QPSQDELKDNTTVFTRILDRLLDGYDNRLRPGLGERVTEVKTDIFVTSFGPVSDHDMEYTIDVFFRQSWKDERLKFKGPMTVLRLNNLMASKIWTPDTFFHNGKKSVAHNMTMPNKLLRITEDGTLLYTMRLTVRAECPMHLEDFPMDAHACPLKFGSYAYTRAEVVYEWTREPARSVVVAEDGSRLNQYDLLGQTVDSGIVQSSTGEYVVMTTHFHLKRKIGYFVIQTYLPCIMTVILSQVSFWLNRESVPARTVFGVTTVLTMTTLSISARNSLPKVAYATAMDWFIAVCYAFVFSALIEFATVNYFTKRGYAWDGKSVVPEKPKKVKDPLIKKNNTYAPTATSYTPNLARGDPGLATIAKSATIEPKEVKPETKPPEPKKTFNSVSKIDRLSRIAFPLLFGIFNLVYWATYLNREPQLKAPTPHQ
Experiment: cell-based or functional assay

- GABAAR α1-GFP surface membrane levels (surface biotinylation, HEK293 cells expressing GABAAR α1-GFP and GABAAR β3) with the competing peptide mRFP-GABAAR α1(334–346) against mRFP: 2.5 fold
B1: Endogenous Usp14 protein derived from mouse brain lysates (enzyme, mouse (endogenous in brain), UniProt Q9JMA1 1-493, looked up)
chain: MPLYSVTVKWGKEKFEGVELNTDEPPMVFKAQLFALTGVQPARQKVMVKGGTLKDDDWGNIKMKNGMTVLMMGSADALPEEPSAKTVFVEDMTEEQLATAMELPCGLTNLGNTCYMNATVQCIRSVPELKDALKRYAGALRASGEMASAQYITAALRDLFDSMDKTSSSIPPIILLQFLHMAFPQFAEKGEQGQYLQQDANECWIQMMRVLQQKLEAIEDDSGRETDSSSAPAVTPSKKKSLIDQYFGVEFETTMKCTESEEEEVTKGKENQLQLSCFINQEVKYLFTGLKLRLQEEITKQSPTLQRNALYIKSSKISRLPAYLTIQMVRFFYKEKESVNAKVLKDVKFPLMLDVYELCTPELQEKMVSFRSKFKDLEDKKVNQQPNANDKNSPPKEIKYEPFSFADDIGSNNCGYYDLQAVLTHQGRSSSSGHYVSWVRRKQDEWIKFDDDKVSIVTPEDILRLSGGGDWHIAYVLLYGPRRVEIMEEESEQ
